The record followed here is patent EP4371564A2.

Assay [1] deals with T4 capsid (empty head isolated from 10-amber 13-amber hoc-del soc-del T4 phage-infected E. coli) (bacteriophage T4) (UniProt P04535).
The target is the same in assay [2]. Put plainly: Cas9-Soc in complex with gRNA displayed on T4 capsid.
For assay [3] the target is unchanged. Kind of assay: Cas9-Soc in complex with siRNA displayed on T4 capsid.
Assay [4] shares this target. Kind of assay: Cas9-Soc-gRNA RNP co-displayed with Cre-Hoc on the same T4 capsid.
Assay [5] shares this target. Put plainly: in vitro display on T4 heads, sedimentation, SDS-PAGE densitometry with gp23* as internal control.
For assay [6] the target is unchanged. Put plainly: display on T4 capsids at increasing ratios, SDS-PAGE (FIG. 21).
For assay [7] the target is unchanged. Kind of assay: Cre-Hoc co-displayed with Cas9-Soc-gRNA RNP on the same T4 capsid.
Assay [8] shares this target. Kind of assay: copies displayed per T4 capsid, Soc-RGD against RGD-Hoc.
Assay [9] shares this target. Kind of assay: Soc-TAT displayed on T4(Luci) capsids used for transduction (FIG. 28).
The target is the same in assay [10]. Kind of assay: display on T4 capsids at increasing ratios, SDS-PAGE (FIG. 20).

Like-named read-outs stand apart in the source and are kept apart here.

As for “Cas9-Soc (SEQ ID NO: 16) (from UniProt Q99ZW2 1-1368)”, in [1], the Copies/ capsid (copies per capsid) was 550. In addition, the copies per capsid (copies per capsid) in [2] and in assay [3] was 280 throughout. Further, in assay [4], the molecules per AV (molecules per capsid) turned out to be 270. With Cpf1-Soc (SEQ ID NO: 17), the Copies/ capsid (copies per capsid) in [5] is 450. As for Cre-Hoc (SEQ ID NO: 18), the Copies/ capsid (copies per capsid) in [1] is 95. In addition, in assay [6], the ratio of protein molecules to binding sites at saturation (molecules per binding site) lay in the range of 15 to 20. Moreover, in [7], the molecules per AV (molecules per capsid) is 50. Take Cre-Soc (SEQ ID NO: 22): in assay [1], the Copies/ capsid (copies per capsid) came out at 630.

Consider GFP-Soc (from UniProt P03715 1-80), for which the Copies/ capsid (copies per capsid) in assay [1] is 660. As for “RGD-Hoc (SEQ ID NO: 19) (from UniProt P18056 1-376)”, the Copies/ capsid (copies per capsid) in assay [5] is 85. Soc-RGD (from UniProt P03715 1-80): the Copies/ capsid (copies per capsid) in assay [1] worked out at 710. The fold copy number against RGD-Hoc in assay [8] turned out to be 8.3 fold. For the substance Soc-TAT (from UniProt P03715 1-80), in assay [1], the Copies/ capsid (copies per capsid) was 750. In addition, in assay [9], the copies per capsid (copies per capsid) stood at 520. In assay [1], “β-Gal-Soc (from UniProt P00722 2-1024; P03715 1-80) (enzyme)” had a Copies/ capsid (copies per capsid) of 320. The ratio of protein molecules to binding sites at saturation (molecules per binding site) in assay [10] was in the range of 15 to 20.
